# From US20230295310A1 (ABCELLERA BIOLOGICS, published 2023)
# Target: EGFR on HeLa cells (UniProt P00533 25-1210, limits assumed)
# Assay: cell-based or functional assay
Binder,Max killing % [%],X… HeLa EC50 [nM]
"GOMP001_bsAb_031 (bispecific antibody, human IgG1, kappa, L234A L235A) heavy 1: QVQLVQSGAEVKKPGASVKVSCKASGYTFTSHWMHWVRKAPGQGLEWIGEFNPSNGRTNYNEEFKSKATMTVDTSTNTAYMELSSLRSEDTAVYYCASRDYDYDGRYFDYWGQGTLVTVSSASTKGPSVFPLAPSSKSTSGGTAALGCLVADYFPEPVTVSWNSGALTSGVHTFPAVLQSSGLYSLSSVVTVPSSSLGTQTYICNVNHKPSNTKVDEKVEPKSCDKTHTCPPCPAPEAAGGPSVFLFPPKPKDTLMISRTPEVTCVVVDVSHEDPEVKFNWYVDGVEVHNAKTKPREEQYNSTYRVVSVLTVLHQDWLNGKEYKCKVSNKALPAPIEKTISKAKGQPREPQVYTLPPSREEMTDNQVSLTCLVKGFYPSDIAVEWESNGQPENNYKTTPPVLMSDGSFFLASKLTVDKSRWQQGNVFSCSVMHEALHNHYTQKSLSLSPG light 1: RIQMTQSPSSLSASVGDRVTITCSASSSVTYMYWYQDKPGKAPKLLIYDTSNLASGVPSRFSGSGSGTDYTFTISSLQPEDIATYYCQQWSSHIFTFGQGTKVEIKRTVAAPSVFIFPPSDKQLKSGTARVVCLLNNFYPREAKVQWKVDNALQSGNSQESVTEQDSKDSTYSLSSTLTLSKADYEKHKVYACEVTHQGLSSPVTKSFNRGEC heavy 2: QGQLVESGGGVVQPGRSLRLSCAASGFTFRGFGMHWVRYAPGKGLEWVAIIYYDGKNKYYADRVKGRFTISRDNSKNTLYLQMNSLRAEDTAVYYCAKGGGYNWFDPWGRGTLVTVSSASTKGPSVFPLAPSSKSTSGGTAALGCLVKDYFPEPVTVSWNSGALTSGVHTFPAVLQSSGLYSLSSVVTVPSSSLGTQTYICNVNHKPSNTKVDKKVEPKSCDKTHTCPPCPAPEAAGGPSVFLFPPKPKDTLMISRTPEVTCVVVDVSHEDPEVKFNWYVDGVEVHNAKTKPREEQYNSTYRVVSVLTVLHQDWLNGKEYKCKVSNKALPAPIEKTISKAKGQPRRPRVYTLPPSREEMTKNQVSLVCLVKGFYPSDIAVEWESNGQPENNYKTTPPVLDSDGSFFLYSVLTVDKSRWQQGNVFSCSVMHEALHNHYTQKSLSLSPG light 2: DIQMTQSPSSLSASVGDRVTITCRASQSISTYLNWYQRKPGDAPKLLIYSASSLQSGVPSRFSGSGSGTDFTLTISNLQPEDFAIYYCQRSYSPPFTFGPGTKLDIRRTVAAPSVFIFPPSDEQLKSGTASVVCLLNNFYPREAKVQWKVDNALQSGNSQESVTEQDSKDSTYSLSSTLTLSKADYEKHKVYACEVTHQGLSSPVTKSFNRGEC",68.8,–
"GOMP001_bsAb_032 (bispecific antibody, human IgG1, kappa, L234A L235A) heavy 1: QGQLVESGGGVVQPGRSLRLSCAASGFTFRGFGMHWVRKAPGKGLEWVAIIYYDGKNKYYADEVKGRFTISRDNSKNTLYLQMNSLRAEDTAVYYCAKGGGYNWFDPWGQGTLVTVSSASTKGPSVFPLAPSSKSTSGGTAALGCLVADYFPEPVTVSWNSGALTSGVHTFPAVLQSSGLYSLSSVVTVPSSSLGTQTYICNVNHKPSNTKVDEKVEPKSCDKTHTCPPCPAPEAAGGPSVFLFPPKPKDTLMISRTPEVTCVVVDVSHEDPEVKFNWYVDGVEVHNAKTKPREEQYNSTYRVVSVLTVLHQDWLNGKEYKCKVSNKALPAPIEKTISKAKGQPREPQVYTLPPSREEMTDNQVSLTCLVKGFYPSDIAVEWESNGQPENNYKTTPPVLMSDGSFFLASKLTVDKSRWQQGNVFSCSVMHEALHNHYTQKSLSLSPG light 1: RIQMTQSPSSLSASVGDRVTITCRASQSISTYLNWYQDKPGKAPKLLIYSASSLQSGVPSRFSGSGSGTDFTLTISNLQPEDFAIYYCQRSYSPPFTFGPGTKLDIRRTVAAPSVFIFPPSDKQLKSGTARVVCLLNNFYPREAKVQWKVDNALQSGNSQESVTEQDSKDSTYSLSSTLTLSKADYEKHKVYACEVTHQGLSSPVTKSFNRGEC heavy 2: QVQLVQSGAEVKKPGASVKVSCKASGYTFTSHWMHWVRYAPGQGLEWIGEFNPSNGRTNYNEKFKSKATMTVDTSTNTAYMELSSLRSEDTAVYYCASRDYDYDGRYFDYWGRGTLVTVSSASTKGPSVFPLAPSSKSTSGGTAALGCLVKDYFPEPVTVSWNSGALTSGVHTFPAVLQSSGLYSLSSVVTVPSSSLGTQTYICNVNHKPSNTKVDKKVEPKSCDKTHTCPPCPAPEAAGGPSVFLFPPKPKDTLMISRTPEVTCVVVDVSHEDPEVKFNWYVDGVEVHNAKTKPREEQYNSTYRVVSVLTVLHQDWLNGKEYKCKVSNKALPAPIEKTISKAKGQPRRPRVYTLPPSREEMTKNQVSLVCLVKGFYPSDIAVEWESNGQPENNYKTTPPVLDSDGSFFLYSVLTVDKSRWQQGNVFSCSVMHEALHNHYTQKSLSLSPG light 2: DIQMTQSPSSLSASVGDRVTITCSASSSVTYMYWYQRKPGDAPKLLIYDTSNLASGVPSRFSGSGSGTDYTFTISSLQPEDIATYYCQQWSSHIFTFGQGTKVEIKRTVAAPSVFIFPPSDEQLKSGTASVVCLLNNFYPREAKVQWKVDNALQSGNSQESVTEQDSKDSTYSLSSTLTLSKADYEKHKVYACEVTHQGLSSPVTKSFNRGEC",98.1,0.061
"GOMP001_bsAb_037 (bispecific antibody, human IgG1, kappa, L234A L235A) heavy 1: QVQLVQSGAEVKKPGASVKVSCKASGYTFTSHWMHWVRKAPGQGLEWIGEFNPSNGRTNYNEEFKSKATMTVDTSTNTAYMELSSLRSEDTAVYYCASRDYDYDGRYFDYWGQGTLVTVSSASTKGPSVFPLAPSSKSTSGGTAALGCLVADYFPEPVTVSWNSGALTSGVHTFPAVLQSSGLYSLSSVVTVPSSSLGTQTYICNVNHKPSNTKVDEKVEPKSCDKTHTCPPCPAPEAAGGPSVFLFPPKPKDTLMISRTPEVTCVVVDVSHEDPEVKFNWYVDGVEVHNAKTKPREEQYNSTYRVVSVLTVLHQDWLNGKEYKCKVSNKALPAPIEKTISKAKGQPREPQVYTLPPSREEMTDNQVSLTCLVKGFYPSDIAVEWESNGQPENNYKTTPPVLMSDGSFFLASKLTVDKSRWQQGNVFSCSVMHEALHNHYTQKSLSLSPG light 1: RIQMTQSPSSLSASVGDRVTITCSASSSVTYMYWYQDKPGKAPKLLIYDTSNLASGVPSRFSGSGSGTDYTFTISSLQPEDIATYYCQQWSSHIFTFGQGTKVEIKRTVAAPSVFIFPPSDKQLKSGTARVVCLLNNFYPREAKVQWKVDNALQSGNSQESVTEQDSKDSTYSLSSTLTLSKADYEKHKVYACEVTHQGLSSPVTKSFNRGEC heavy 2: EVQLVESGGVLVKTGGSLRLSCVASGFSFKKAWMNWVRYAPGKGLEWVGRIKRNSDGGAADYAARVKDRFTLSRDDSKNTLYLQMNSLKTEDTAVYYCTTLDSSSWYVGYYYMDVWGRGTTVTVSSASTKGPSVFPLAPSSKSTSGGTAALGCLVKDYFPEPVTVSWNSGALTSGVHTFPAVLQSSGLYSLSSVVTVPSSSLGTQTYICNVNHKPSNTKVDKKVEPKSCDKTHTCPPCPAPEAAGGPSVFLFPPKPKDTLMISRTPEVTCVVVDVSHEDPEVKFNWYVDGVEVHNAKTKPREEQYNSTYRVVSVLTVLHQDWLNGKEYKCKVSNKALPAPIEKTISKAKGQPRRPRVYTLPPSREEMTKNQVSLVCLVKGFYPSDIAVEWESNGQPENNYKTTPPVLDSDGSFFLYSVLTVDKSRWQQGNVFSCSVMHEALHNHYTQKSLSLSPG light 2: DIHMTQSPSSVSASLGDRVTFTCRASQNINNWLAWYQRKPGDAPKLLIYTASSLQSGVPSRFSGSGSGTDFTLTISSLQPDDFATYYCQQAHSLPITFGQGTRLGIKRTVAAPSVFIFPPSDEQLKSGTASVVCLLNNFYPREAKVQWKVDNALQSGNSQESVTEQDSKDSTYSLSSTLTLSKADYEKHKVYACEVTHQGLSSPVTKSFNRGEC",83.6,0.174
"GOMP001_bsAb_038 (bispecific antibody, human IgG1, kappa, L234A L235A) heavy 1: EVQLVESGGVLVKTGGSLRLSCVASGFSFKKAWMNWVRKAPGKGLEWVGRIKRNSDGGAADYAAEVKDRFTLSRDDSKNTLYLQMNSLKTEDTAVYYCTTLDSSSWYVGYYYMDVWGKGTTVTVSSASTKGPSVFPLAPSSKSTSGGTAALGCLVADYFPEPVTVSWNSGALTSGVHTFPAVLQSSGLYSLSSVVTVPSSSLGTQTYICNVNHKPSNTKVDEKVEPKSCDKTHTCPPCPAPEAAGGPSVFLFPPKPKDTLMISRTPEVTCVVVDVSHEDPEVKFNWYVDGVEVHNAKTKPREEQYNSTYRVVSVLTVLHQDWLNGKEYKCKVSNKALPAPIEKTISKAKGQPREPQVYTLPPSREEMTDNQVSLTCLVKGFYPSDIAVEWESNGQPENNYKTTPPVLMSDGSFFLASKLTVDKSRWQQGNVFSCSVMHEALHNHYTQKSLSLSPG light 1: RIHMTQSPSSVSASLGDRVTFTCRASQNINNWLAWYQDKPGKAPKLLIYTASSLQSGVPSRFSGSGSGTDFTLTISSLQPDDFATYYCQQAHSLPITFGQGTRLGIKRTVAAPSVFIFPPSDKQLKSGTARVVCLLNNFYPREAKVQWKVDNALQSGNSQESVTEQDSKDSTYSLSSTLTLSKADYEKHKVYACEVTHQGLSSPVTKSFNRGEC heavy 2: QVQLVQSGAEVKKPGASVKVSCKASGYTFTSHWMHWVRYAPGQGLEWIGEFNPSNGRTNYNEKFKSKATMTVDTSTNTAYMELSSLRSEDTAVYYCASRDYDYDGRYFDYWGRGTLVTVSSASTKGPSVFPLAPSSKSTSGGTAALGCLVKDYFPEPVTVSWNSGALTSGVHTFPAVLQSSGLYSLSSVVTVPSSSLGTQTYICNVNHKPSNTKVDKKVEPKSCDKTHTCPPCPAPEAAGGPSVFLFPPKPKDTLMISRTPEVTCVVVDVSHEDPEVKFNWYVDGVEVHNAKTKPREEQYNSTYRVVSVLTVLHQDWLNGKEYKCKVSNKALPAPIEKTISKAKGQPRRPRVYTLPPSREEMTKNQVSLVCLVKGFYPSDIAVEWESNGQPENNYKTTPPVLDSDGSFFLYSVLTVDKSRWQQGNVFSCSVMHEALHNHYTQKSLSLSPG light 2: DIQMTQSPSSLSASVGDRVTITCSASSSVTYMYWYQRKPGDAPKLLIYDTSNLASGVPSRFSGSGSGTDYTFTISSLQPEDIATYYCQQWSSHIFTFGQGTKVEIKRTVAAPSVFIFPPSDEQLKSGTASVVCLLNNFYPREAKVQWKVDNALQSGNSQESVTEQDSKDSTYSLSSTLTLSKADYEKHKVYACEVTHQGLSSPVTKSFNRGEC",93.6,0.0331
